# Biological target: the molecule itself
# Assay: cross-linking
protein,measurement,value
MSLLTEVETPIRNEWGCRCNDSSDPLVVAASIIGILHLILWILDRL (domain or fragment) [M2(1-46) of influenza A/Hong Kong/8/68 (H3N2) in nanodiscs],stoichiometry N,4

# From publication PMC9771723 (iScience, 2022)
